The values below come from PMC3400562 (2012).

For assay [1], the target named is wt MPER peptide (HIV-1).
Assay [2] addresses wt MPER peptide (HIV-1). This is another data set of the same source.
Assay [3] deals with wt MPER peptide (HIV-1). The source holds these as a separate data set.
Assay [4] concerns the target wt MPER peptide (HIV-1). This is another data set of the same source.

Read-outs that look alike come from different tables or passages of the source.

B1: 2F5 variant e4W (antibody, V domains shown)
VH: RITLKESGPPLVKPTQTLTLTCSFSGFSLSDFGVGVGWIRQPPGKALEWLAIIYSDDDKRYSPSLNTRLTITKDTSKNQVVLVMTRVSPVDTATYFCAHRRGPTTGGLFGWGGPIARGPVNAMDVWGQGITVTISS
VL: ALQLTQSPSSLSASVGDRITITCRASQGVTSALAWYRQKPGSPPQLLIYDASSLESGVPSRFSGSGSGTEFTLTISTLRPEDFATYYCQQLHFYPHTFGGGTRVDVR
On to B1, for which the Kd with wt MPER peptide [1] is 145 nM. The molecule also had a koff with wt MPER peptide [2] of 0.0105 s⁻¹.

B2: 2F5 variant r4W2b (antibody, V domains shown)
VH: RITLKESGPPLVKPTQTLTLTCSFSGFSLSDFGVGVGWIRQPPGKALEWLAIIYSDDDKRYSPSLNTRLTITKDTSKNQVVLVMTRVSPVDTATYFCAHRRGPLFWWARGPVNAMDVWGQGITVTISS
VL: ALQLTQSPSSLSASVGDRITITCRASQGVTSALAWYRQKPGSPPQLLIYDASSLESGVPSRFSGSGSGTEFTLTISTLRPEDFATYYCQQLHFYPHTFGGGTRVDVR
Molecule B2 returned a Kd with wt MPER peptide [1] of 3.94 nM. The koff in the assay with wt MPER peptide [2] is 0.0034 s⁻¹.

B3: 2F5 variant r6W (antibody, V domains shown)
VH: RITLKESGPPLVKPTQTLTLTCSFSGFSLSDFGVGVGWIRQPPGKALEWLAIIYSDDDKRYSPSLNTRLTITKDTSKNQVVLVMTRVSPVDTATYFCAHRRGLFGWRGPVNAMDVWGQGITVTISS
VL: ALQLTQSPSSLSASVGDRITITCRASQGVTSALAWYRQKPGSPPQLLIYDASSLESGVPSRFSGSGSGTEFTLTISTLRPEDFATYYCQQLHFYPHTFGGGTRVDVR
As for B3, binding with wt MPER peptide [1] was characterised by a dissociation constant (Kd) of 353 nM. The koff with wt MPER peptide [2] was 0.0224 s⁻¹.

B4: 2F5 variant r4W3 (antibody, V domains shown)
VH: RITLKESGPPLVKPTQTLTLTCSFSGFSLSDFGVGVGWIRQPPGKALEWLAIIYSDDDKRYSPSLNTRLTITKDTSKNQVVLVMTRVSPVDTATYFCAHRRGPWFGWWRGPVNAMDVWGQGITVTISS
VL: ALQLTQSPSSLSASVGDRITITCRASQGVTSALAWYRQKPGSPPQLLIYDASSLESGVPSRFSGSGSGTEFTLTISTLRPEDFATYYCQQLHFYPHTFGGGTRVDVR
As to B4, the Kd in the assay with wt MPER peptide [3] was 2.2 nM. The molecule also gave a koff with wt MPER peptide [4] of 0.00174 s⁻¹.

B5: 2F5 variant r2W (antibody, V domains shown)
VH: RITLKESGPPLVKPTQTLTLTCSFSGFSLSDFGVGVGWIRQPPGKALEWLAIIYSDDDKRYSPSLNTRLTITKDTSKNQVVLVMTRVSPVDTATYFCAHRRGPTLFGWIARGPVNAMDVWGQGITVTISS
VL: ALQLTQSPSSLSASVGDRITITCRASQGVTSALAWYRQKPGSPPQLLIYDASSLESGVPSRFSGSGSGTEFTLTISTLRPEDFATYYCQQLHFYPHTFGGGTRVDVR
In the case of B5, the affinity in the assay with wt MPER peptide [1], expressed as Kd, was 29.5 nM. Also, in the assay with wt MPER peptide [2], the koff amounted to 0.00435 s⁻¹.

B6: 2F5 variant r4WY2 (antibody, V domains shown)
VH: RITLKESGPPLVKPTQTLTLTCSFSGFSLSDFGVGVGWIRQPPGKALEWLAIIYSDDDKRYSPSLNTRLTITKDTSKNQVVLVMTRVSPVDTATYFCAHRRGPYFGWYRGPVNAMDVWGQGITVTISS
VL: ALQLTQSPSSLSASVGDRITITCRASQGVTSALAWYRQKPGSPPQLLIYDASSLESGVPSRFSGSGSGTEFTLTISTLRPEDFATYYCQQLHFYPHTFGGGTRVDVR
As for B6, binding in the assay with wt MPER peptide [1] was put at a Kd of 5.49 nM. In addition, the koff with wt MPER peptide [2] was 0.00193 s⁻¹.

B7: 2F5 variant r4WY (antibody, V domains shown)
VH: RITLKESGPPLVKPTQTLTLTCSFSGFSLSDFGVGVGWIRQPPGKALEWLAIIYSDDDKRYSPSLNTRLTITKDTSKNQVVLVMTRVSPVDTATYFCAHRRGPLFGWYRGPVNAMDVWGQGITVTISS
VL: ALQLTQSPSSLSASVGDRITITCRASQGVTSALAWYRQKPGSPPQLLIYDASSLESGVPSRFSGSGSGTEFTLTISTLRPEDFATYYCQQLHFYPHTFGGGTRVDVR
For the molecule B7, the Kd in the assay with wt MPER peptide [1] was 2.77 nM. In the assay with wt MPER peptide [2], this molecule yielded a koff of 0.00055 s⁻¹.

B8: 2F5 variant r4W2c (antibody, V domains shown)
VH: RITLKESGPPLVKPTQTLTLTCSFSGFSLSDFGVGVGWIRQPPGKALEWLAIIYSDDDKRYSPSLNTRLTITKDTSKNQVVLVMTRVSPVDTATYFCAHRRGPWFGWARGPVNAMDVWGQGITVTISS
VL: ALQLTQSPSSLSASVGDRITITCRASQGVTSALAWYRQKPGSPPQLLIYDASSLESGVPSRFSGSGSGTEFTLTISTLRPEDFATYYCQQLHFYPHTFGGGTRVDVR
B8 displayed a Kd with wt MPER peptide [1] of 5.12 nM. The molecule also showed a koff in the assay with wt MPER peptide [2] of 0.00112 s⁻¹.

B9: 2F5 variant r4W2a (antibody, V domains shown)
VH: RITLKESGPPLVKPTQTLTLTCSFSGFSLSDFGVGVGWIRQPPGKALEWLAIIYSDDDKRYSPSLNTRLTITKDTSKNQVVLVMTRVSPVDTATYFCAHRRGPLFGWWRGPVNAMDVWGQGITVTISS
VL: ALQLTQSPSSLSASVGDRITITCRASQGVTSALAWYRQKPGSPPQLLIYDASSLESGVPSRFSGSGSGTEFTLTISTLRPEDFATYYCQQLHFYPHTFGGGTRVDVR
The molecule B9 gave a Kd in the assay with wt MPER peptide [1] of 2.57 nM. The molecule also displayed a koff with wt MPER peptide [2] of 0.00106 s⁻¹.

B10: 2F5 variant r4W (antibody, V domains shown)
VH: RITLKESGPPLVKPTQTLTLTCSFSGFSLSDFGVGVGWIRQPPGKALEWLAIIYSDDDKRYSPSLNTRLTITKDTSKNQVVLVMTRVSPVDTATYFCAHRRGPLFGWARGPVNAMDVWGQGITVTISS
VL: ALQLTQSPSSLSASVGDRITITCRASQGVTSALAWYRQKPGSPPQLLIYDASSLESGVPSRFSGSGSGTEFTLTISTLRPEDFATYYCQQLHFYPHTFGGGTRVDVR
Regarding B10, the Kd in the assay with wt MPER peptide [1] came out at 79.6 nM. The koff in the assay with wt MPER peptide [2] came to 0.00681 s⁻¹.

B11: 2F5 variant e2W (antibody, V domains shown)
VH: RITLKESGPPLVKPTQTLTLTCSFSGFSLSDFGVGVGWIRQPPGKALEWLAIIYSDDDKRYSPSLNTRLTITKDTSKNQVVLVMTRVSPVDTATYFCAHRRGPTTGLFGWGPIARGPVNAMDVWGQGITVTISS
VL: ALQLTQSPSSLSASVGDRITITCRASQGVTSALAWYRQKPGSPPQLLIYDASSLESGVPSRFSGSGSGTEFTLTISTLRPEDFATYYCQQLHFYPHTFGGGTRVDVR
B11 returned a Kd with wt MPER peptide [1] of 131 nM. The molecule further registered a koff with wt MPER peptide [2] of 0.0105 s⁻¹.
